Source: article PMC9718832, “An NKX-COUP-TFII morphogenetic code directs mucosal endothelial addressin expression” (Nature Communications, 2022)

Assays:
NKX2-3;COUP-TFII-GST = NKX2-3;COUP-TFII-GST (mouse;mouse, UniProt P97334;P43135 1-362;1-414, |); assay: EMSA; EMSA: 20 mM Tris pH 8.0, 10 mM KCl, 1 mM DTT, 20% glycerol, 12.5 ng poly dI/C, 6.25 pmol random ss oligo, BSA, 1-2 pmol probe, 4 C; conditions: protein: recombinant;recombinant; tags: His, T7 (pET21A);GST (pGEX2TK); copies: 1;1; label: labeled; blunt
COUP-TFII-GST = molecular target: T1, COUP-TFII-GST (mouse, UniProt P43135 1-414); assay: EMSA; inhibited by cold WT probe; EMSA: 20 mM Tris pH 8.0, 10 mM KCl, 1 mM DTT, 20% glycerol, 12.5 ng poly dI/C, 6.25 pmol random ss oligo, BSA, 1-2 pmol probe, 4 C; conditions: protein: recombinant; tags: GST (pGEX2TK); chain copies: 2; label: labeled; blunt
T1 sequence: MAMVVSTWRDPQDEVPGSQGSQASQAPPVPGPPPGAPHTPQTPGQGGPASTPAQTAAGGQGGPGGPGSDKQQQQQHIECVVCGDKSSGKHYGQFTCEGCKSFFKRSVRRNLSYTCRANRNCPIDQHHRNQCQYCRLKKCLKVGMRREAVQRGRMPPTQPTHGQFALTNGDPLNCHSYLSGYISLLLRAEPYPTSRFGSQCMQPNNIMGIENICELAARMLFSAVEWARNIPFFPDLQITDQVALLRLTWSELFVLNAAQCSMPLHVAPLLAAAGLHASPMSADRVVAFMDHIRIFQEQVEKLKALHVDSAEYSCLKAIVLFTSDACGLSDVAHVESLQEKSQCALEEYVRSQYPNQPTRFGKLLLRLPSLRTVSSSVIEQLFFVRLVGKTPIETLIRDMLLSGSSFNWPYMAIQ

NKX2-3 [1] = molecular target: T2, NKX2-3 (mouse, UniProt P97334 1-362); assay: as above; conditions: protein: recombinant; tags: His, T7 (pET21A); label: labeled; blunt
NKX2-5;COUP-TFII = NKX2-5;COUP-TFII (mouse;mouse, UniProt P42582;P43135 1-318;1-414, |); assay: EMSA; COUP-TFII tag not stated; EMSA: 20 mM Tris pH 8.0, 10 mM KCl, 1 mM DTT, 20% glycerol, 12.5 ng poly dI/C, 6.25 pmol random ss oligo, BSA, 1-2 pmol probe, 4 C; conditions: protein: recombinant;recombinant, tags: His, T7 (pET21A);His, copies: 1;1, blunt
Chain of NKX2-5;COUP-TFII (P42582 whole entry, one chain of several): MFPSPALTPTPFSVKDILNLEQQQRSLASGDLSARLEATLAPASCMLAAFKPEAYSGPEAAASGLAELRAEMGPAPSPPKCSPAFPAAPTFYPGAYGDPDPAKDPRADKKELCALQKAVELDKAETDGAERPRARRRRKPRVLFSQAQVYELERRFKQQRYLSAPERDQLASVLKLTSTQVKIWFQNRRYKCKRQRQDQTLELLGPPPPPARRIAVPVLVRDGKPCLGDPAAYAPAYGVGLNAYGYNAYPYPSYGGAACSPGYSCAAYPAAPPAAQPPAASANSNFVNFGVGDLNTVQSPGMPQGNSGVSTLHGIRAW

GST-tagged COUP-TFII = molecular target: T3, GST-tagged COUP-TFII (mouse, UniProt P43135 1-414); assay: native gel or EMSA; NKX2-3 and COUP-TFII-GST co-incubated with labelled St6gal1 NCCE probe; complex seen on DNA; conditions: both partners purified
T3 construct: COUP transcription factor 2 (COUP-TFII, Nr2f2); Nr2f2 cDNA cloned into pGEX2TK; also called COUP-TFII-GST; source: E. coli BL21, purified
T3 sequence (looked up): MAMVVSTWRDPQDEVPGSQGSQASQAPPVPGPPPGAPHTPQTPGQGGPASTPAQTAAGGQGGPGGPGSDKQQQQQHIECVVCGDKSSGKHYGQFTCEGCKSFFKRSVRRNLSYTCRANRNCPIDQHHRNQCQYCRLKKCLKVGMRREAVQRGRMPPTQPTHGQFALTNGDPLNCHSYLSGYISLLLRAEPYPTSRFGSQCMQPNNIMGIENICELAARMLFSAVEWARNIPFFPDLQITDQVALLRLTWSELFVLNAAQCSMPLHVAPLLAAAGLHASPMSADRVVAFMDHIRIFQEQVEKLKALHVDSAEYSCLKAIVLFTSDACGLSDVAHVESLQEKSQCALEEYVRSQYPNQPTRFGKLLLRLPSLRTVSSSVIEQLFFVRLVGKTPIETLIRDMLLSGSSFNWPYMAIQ

[2] = molecular target: T4, COUP-TFII (recombinant, His- and T7-tagged) (mouse, UniProt P43135 1-414); assay: native gel or EMSA; recombinant proteins co-incubated with labelled Madcam1 CE probes (native CE, CE_ΔC_A, CE_ΔN_ΔC_A); 4 °C, 20% glycerol, 20 mM Tris pH 8.0, 10 mM KCl, 1 mM DTT, poly dI/C, BSA; 6% gel; supershift with anti-NKX2-3; complex seen on DNA; conditions: both partners purified
T4 construct: COUP transcription factor 2 (COUP-TFII, Nr2f2), mouse; cDNA PCR-amplified from mouse cDNA as BamHI-EcoRI fragment and cloned into pET21-A; also called Nr2f2; NR2F2; source: E. coli BL21, purified
T4 sequence (looked up): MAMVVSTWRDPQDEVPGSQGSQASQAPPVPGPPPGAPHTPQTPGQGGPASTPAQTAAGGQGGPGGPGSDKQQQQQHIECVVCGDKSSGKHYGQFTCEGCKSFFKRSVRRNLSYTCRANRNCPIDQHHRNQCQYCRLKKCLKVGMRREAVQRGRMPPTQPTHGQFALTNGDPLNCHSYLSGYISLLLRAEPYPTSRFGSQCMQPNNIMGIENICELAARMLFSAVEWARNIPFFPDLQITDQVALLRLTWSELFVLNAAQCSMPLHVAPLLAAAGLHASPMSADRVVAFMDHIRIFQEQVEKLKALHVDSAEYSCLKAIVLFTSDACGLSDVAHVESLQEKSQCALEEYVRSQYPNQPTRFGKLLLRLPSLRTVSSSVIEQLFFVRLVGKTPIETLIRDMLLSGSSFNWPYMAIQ

COUP-TFII [3] = molecular target: T5, COUP-TFII (mouse, UniProt P43135 1-414); assay: EMSA; EMSA: 20 mM Tris pH 8.0, 10 mM KCl, 1 mM DTT, 20% glycerol, 12.5 ng poly dI/C, 6.25 pmol random ss oligo, BSA, 1-2 pmol probe, 4 C; conditions: protein: recombinant; tags: His, T7 (pET21A); chain copies: 2; blunt
T5 sequence: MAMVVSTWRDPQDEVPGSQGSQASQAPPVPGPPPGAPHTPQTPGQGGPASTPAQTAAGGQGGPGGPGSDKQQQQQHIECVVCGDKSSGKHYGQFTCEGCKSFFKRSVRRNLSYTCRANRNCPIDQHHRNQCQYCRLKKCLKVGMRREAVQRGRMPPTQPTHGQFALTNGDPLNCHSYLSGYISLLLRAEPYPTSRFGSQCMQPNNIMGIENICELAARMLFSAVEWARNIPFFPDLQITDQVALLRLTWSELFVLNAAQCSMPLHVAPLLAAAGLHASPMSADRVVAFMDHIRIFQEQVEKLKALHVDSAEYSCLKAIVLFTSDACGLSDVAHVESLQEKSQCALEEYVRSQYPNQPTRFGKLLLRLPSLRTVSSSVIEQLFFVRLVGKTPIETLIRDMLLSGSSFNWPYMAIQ

NKX2-3 [4] = molecular target: T2, NKX2-3; assay: as above; conditions: protein: recombinant; tags: His, T7 (pET21A); blunt
NKX2-3;COUP-TFII [5] = molecular target: T6, NKX2-3;COUP-TFII (mouse;mouse, UniProt P97334;P43135 1-362;1-414, |); assay: EMSA; supershift with anti-NKX2-3; EMSA: 20 mM Tris pH 8.0, 10 mM KCl, 1 mM DTT, 20% glycerol, 12.5 ng poly dI/C, 6.25 pmol random ss oligo, BSA, 1-2 pmol probe, 4 C; conditions: protein: recombinant;recombinant, tags: His, T7 (pET21A);His, copies: 1;1, blunt
NKX2-3;COUP-TFII [6] = molecular target: T6, NKX2-3;COUP-TFII; assay: EMSA; band stronger than on WT CE; supershift with anti-NKX2-3; EMSA: 20 mM Tris pH 8.0, 10 mM KCl, 1 mM DTT, 20% glycerol, 12.5 ng poly dI/C, 6.25 pmol random ss oligo, BSA, 1-2 pmol probe, 4 C; conditions: protein: recombinant;recombinant, tags: His, T7 (pET21A);His, copies: 1;1, blunt
NKX2-3;COUP-TFII [7] = molecular target: T6, NKX2-3;COUP-TFII; assay: EMSA; EMSA: 20 mM Tris pH 8.0, 10 mM KCl, 1 mM DTT, 20% glycerol, 12.5 ng poly dI/C, 6.25 pmol random ss oligo, BSA, 1-2 pmol probe, 4 C; conditions: protein: recombinant;recombinant; tags: His, T7 (pET21A);His, T7 (pET21A); copies: 1;1; blunt
COUP-TFII [8] = molecular target: T5, COUP-TFII; assay: EMSA; supershift; EMSA: 20 mM Tris pH 8.0, 10 mM KCl, 1 mM DTT, 20% glycerol, 12.5 ng poly dI/C, 6.25 pmol random ss oligo, BSA, 1-2 pmol probe, 4 C; conditions: protein: recombinant; tags: His, T7 (pET21A); chain copies: 2; blunt
HEY1 [9] = molecular target: T7, HEY1 (mouse, UniProt Q9WV93 1-299); assay: EMSA; supershift with anti-HEY1 (HRT1); EMSA: 20 mM Tris pH 8.0, 10 mM KCl, 1 mM DTT, 20% glycerol, 12.5 ng poly dI/C, 6.25 pmol random ss oligo, BSA, 1-2 pmol probe, 4 C; conditions: protein: recombinant; tags: His, T7 (pET21A); chain copies: 2; blunt
T7 sequence: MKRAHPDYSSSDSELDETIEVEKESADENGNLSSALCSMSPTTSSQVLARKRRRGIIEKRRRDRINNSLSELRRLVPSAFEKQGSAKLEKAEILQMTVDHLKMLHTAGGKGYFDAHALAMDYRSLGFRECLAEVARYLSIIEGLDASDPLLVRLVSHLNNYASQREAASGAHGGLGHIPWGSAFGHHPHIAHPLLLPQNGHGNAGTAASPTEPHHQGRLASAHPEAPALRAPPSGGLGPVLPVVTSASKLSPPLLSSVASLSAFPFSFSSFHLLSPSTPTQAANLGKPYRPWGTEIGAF

NKX2-3 [10] = molecular target: T2, NKX2-3; assay: EMSA; supershift; HEY1 dose-dependently inhibits (Fig S1B); EMSA: 20 mM Tris pH 8.0, 10 mM KCl, 1 mM DTT, 20% glycerol, 12.5 ng poly dI/C, 6.25 pmol random ss oligo, BSA, 1-2 pmol probe, 4 C; conditions: protein: recombinant; tags: His, T7 (pET21A); blunt
HEY1 [11] = molecular target: T7, HEY1; assay: EMSA; EMSA: 20 mM Tris pH 8.0, 10 mM KCl, 1 mM DTT, 20% glycerol, 12.5 ng poly dI/C, 6.25 pmol random ss oligo, BSA, 1-2 pmol probe, 4 C; conditions: protein: recombinant; tags: His, T7 (pET21A); chain copies: 2; blunt

B1: St6gal1 CE WT (dsDNA)
DNA 1: GAGGCTGGTCAGAGAAGTGTGAAAAG
DNA 2: CTTTTCACACTTCTCTGACCAGCCTC
B1: binds (NKX2-3;COUP-TFII-GST); binds (COUP-TFII-GST); binds (NKX2-3 [1]).

B2: Etv2 NCCE (dsDNA)
DNA 1: CCTGCAACTTGACCCAGGCTGCGACCCCCAGC
DNA 2: GCTGGGGGTCGCAGCCTGGGTCAAGTTGCAGG
B2: binds (NKX2-5;COUP-TFII).

B3: NKX2-3 (recombinant, His- and T7-tagged) (natural protein, mouse, UniProt P97334 1-362, looked up)
chain: MMLPSPVTSTPFSVKDILNLEQQRHFHGAHLQAELEQHFHSAPCMLATAEGTQFSDAGEEDEEEEGEKLSYLNSLAAAEGHGDSGLCPQSYVHTVLRDACSGPKEQEEEVVSERSQKSCQLKKSLEAAGDCKTSEDGERPKPRSRRKPRVLFSQAQVFELERRFKQQRYLSAPEREHLASSLKLTSTQVKIWFQNRRYKCKRQRQDKSLELGTHAPPPPPRRVAVPVLVRDGKPCVTPSAQTYGSPYGVGAGAYSYNSFPAYGYGNSAAAAAAAAAAAAAAAAYSGSYGCAYPTGGGGGGGGTASAATTAMQPACSATGGGSFVNVSNLGGFGSGGGAQPLHQGAAAGSACTQGTLQGIRAW
notes: Homeobox protein NKX2-3, mouse; cDNA PCR-amplified from mouse cDNA as EcoRI-HindIII fragment and cloned into pET21-A; also called intestinal homeodomain protein NKX2-3; source: E. coli BL21, purified
B3: binds (GST-tagged COUP-TFII); binds [2].

B4: Tbx5 NCCE (dsDNA)
DNA 1: CCGCTGACCCGACCCTTAATAAGGCA
DNA 2: TGCCTTATTAAGGGTCGGGTCAGCGG
B4: binds (NKX2-5;COUP-TFII).

B5: Madcam1 CE_deltaN_deltaC_A (dsDNA)
DNA 1: CCATGGTCTTGAAAAAAAATGGTGACCCACCTCC
DNA 2: GGAGGTGGGTCACCATTTTTTTTCAAGACCATGG
B5: binds (COUP-TFII [3]); no binding (NKX2-3 [4]); binds (NKX2-3;COUP-TFII [5]).

B6: Madcam1 CE_deltaC_A (dsDNA)
DNA 1: CCATGCACTTGAAAAAAAATGGTGACCCACCTCC
DNA 2: GGAGGTGGGTCACCATTTTTTTTCAAGTGCATGG
B6: binds (NKX2-3;COUP-TFII [6]).

B7: Madcam1 CE WT (dsDNA)
DNA 1: CCATGCACTTGACCCACCATGGTGACCCACCTCC
DNA 2: GGAGGTGGGTCACCATGGTGGGTCAAGTGCATGG
B7: binds (NKX2-3;COUP-TFII [7]); binds (COUP-TFII [8]); binds (HEY1 [9]). B7: binds (NKX2-3 [10]).

B8: Madcam1 CE_deltaE/N (m1) (dsDNA)
DNA 1: CCATGGTCTTGACCCACCATGGTGACCCACCTCC
DNA 2: GGAGGTGGGTCACCATGGTGGGTCAAGACCATGG
B8: no binding (HEY1 [11]); no binding (NKX2-3 [4]).
